The results in this text go back to the DeepSol protein solubility set.

This series in a line: soluble on expression in E. coli; label from the status in PepcDB or PDB records.
“MQNIHKIKQDMCDIGRRIYNRQFAAANDGNITVRVSENEVLCTPTMHCKGYLTPDDISMIDMTGKQIAGRKKRSSEALLHLEIYKQRADIKSVVHCHPPHATAFAIAREPIPQCILPEVEVFLGDVPITKYETPGGQAFADTIIPFVEKTNVMILANHGTVSYGESVERAYWWTEILDSYCRMLLLAKQLGNVSYLDETKSRELLELKDKWGFKDPRNTSEYEDCDICANDIFRDSWKDSGVERRAFAPPPPIKTSGSASSAPAGVDEEQLVKLITNEVMRQMKASS”: the “soluble on expression in E. coli” value is “not soluble”.
For the sequence “AALDDLIDTLGECEDTNKDDPPYTGPVVLDPMDSTYLEALGIKEGTIPPEYRKLLEKNEAITGPLPDSPKPMGIDHAIDALSSDFT”, the “soluble on expression in E. coli” value is given as “soluble”.
Turning to “MEGQTHDAQNNVPEHDNPLMNVKNPSSNLFSKKDAQCLSVLCNGKWLQIVRSSPKVSCEASTCPSHILTKVGENYVAESEKMHKKVISFSSKTFSQGTLQFTMRANGTPHFVFKLENQKDVYVASLSSNVQDQNSYMIHLQRGESSASSSHLVGRINVSTLFSEKVLEREFVLFSSNGENLKIPRTRKNRGLSKKVVHAVKNERRTARLSRTSFIPDLGSWDEQFQAQNYDCLLKNKLPTNLETLAVVVKQETIEDEIGGWGLKFLKRSPMFQRSNDASETETSTSSISMNVVIPSGIHGGPEDGPSSLIERWKSQGNCDCGGWDLCCSLTLLKGQPRKDQYFELFIEVKLSFISSNTSIL”, the “soluble on expression in E. coli” value is on record as “not soluble”.
Then “MTRGLDYYEVMGLTRSANDIDIRRAYRRLALKYHPDINKDGAAGDEFLRICEAYEVLCDPKTKGFYDLYGEDALKDGISDGNGGLKGPMYRFNPEESPKAVFERFFGTANPYEALEALSNQFESMTSEEAPARGKNKVYPLELTLEEIFHGCLKKVAHKRKVLLFSGEYVEEERQLTVDVKPGLPTGTRFVFEGEGNKTPKKEPGPVVFVLKPKPHPRFVRRGSDLVHKVTLPLHHALIGTTLDIRTLDDRDLKVPISDIMRPGSSLTVPGEGMPLPATPSARGNLVIEIDLLFPTHLTETQKMLLRSAFF”, with “soluble”; and “MGSDKIHHHHHHMETISQEKAIEAMPLEGAERTRFWRDPRFKGMECLSATFITHEFAPHAHDTFSIGAIEAGSQISTIKGERSQTGPGDLYLINPDEIHDGHPGHEGYRYRMVYPPTDLLVEILEDVTGRSFKGTPSFSRLLLTDRELALGFHRAHRALEGKVGTLEADESMFGFLARLFERHGNAIIVPLQTRESSAVHRARDYLVENYTHDIGLEELAKLAGLSRAHLIRAFRKEFHITPHAFLTDKRVREAKALLRRGWSAADTAYHCGFADQAHFSRHFKARTGVTPGAYRSA”, with “not soluble”.
Regarding “MSLEAIRIGEINSYSQIPAFTLPYRNGWQLAVEQINAAGGLLGGRPLEVISRDDGGDPGKAVTAAQELLTRHGVHALAGTFLSHVGLAVSDFARQRKVLFMASEPLTDALTWEKGNRYTYRLRPSTYMQAAMLAAEAAKLPITRWATIAPNYEYGQSAVARFKELLLAARPEVTFVAEQWPALYKLDAGPTVQALQQAEPEGLFNVLFGADLPKFVREGRVRGLFAGRQVVSMLTGEPEYLNPLKDEAPEGWIVTGYPWYDIDTAPHRAFVEAYRARWKEDPFVGSLVGYNTLTAMAVAFEKAGGTESETLVETLKDMAFSTPMGPLSFRASDHQSTMGAWVGRTALRDGKGVMVDWRYVDGGSVLPPPEVVSAWRPAGEGHHHHHH”, the “soluble on expression in E. coli” value is reported as “soluble”.
For “MGLSDEQLGKIVRFHLKEDKQAHERIKQKMMESMKAFRKAVGEPATDDETLRKLGQAHIDSFNEMVKYHIDERKAVRSILTPEQIGKLEHHHHHH”, the “soluble on expression in E. coli” value is listed as “not soluble”.
In the case of “MGSDKIHHHHHHMLTGQRRRESRSRQGSGFPTISYPRIRDGANRPRTRMSPLPEAVPFFSQWETPDMTLAVLADGAEVALRRDLLWQGSGAESLDEYAVWAANICGMACLKMILATRGEIVPTIELARRCTRYGGYVVNEGSIKGLIYAPFVSFVQAEFSLEAQVMTNVATSDIPAILRQSRFFIASVSSSIRWPEGEPPSKGGHLVLVTAASDDGFRFHNPSGHTSVTQANAVLAPADFDRFFANRGIAITI”, the “soluble on expression in E. coli” value was “not soluble”.
The same measure for “MGSDKIHHHHHHMKYTVIICDDNLNHASNLALKIGIAAMVDSGDNPDTEIDLEIGKIAQNALDVIEYLKENPISGGIYFLDIELSQEKNAMNGIDLAEQVKQLDPRAQIIFVTAYNEYMEMTFERRIGAVDYINKSNPNLQNRLNETLQDTVRRISKENYSKKMTFSYRLGRIIKNINIDDIYYISTTKAPHKLKLVKNDGTAEFAGDIKSVDKQNEFLTKVSQSYLVNPKNIVQINLKKKEITLSNGDAIKFSRRFTHVMKDMINTYNLKQNNYQI”: “not soluble”; for “MKRVFCPKCDGAITISRETLSQASPNGSLSLLCPHCCHQLRIRLVSKSDNSHNHKTEQEEQELAQELDRSRGYIVVLENIFGYRQEFALREGDNGIGRRNKDSVVDIAVLTGDPSMGRHHCILRVTPKKDGSFLYSIADDDSLVGTFVGGRLLDKKEWCRLNDGDVITMGATSAILYTSDHKDTESEEKN”: “not soluble”; for “MSLRKVFEESKIGNIKLKNRILRSATHESMADSEGKPTEDLIKKYMELAQGEVGAIITGYTGVMQNGKSPAKNMLMLDKDENITSFKNMVNEIHKYDVPIILQIAHCGRQTSEKVTGKPTVAPSPIRDKIYRGSVPHELTDVAINEIIEAFVNAIERAIKAGFDGVELHLAHGYLLSSFLSPHMNKRKDKWGGSTENRFRIVSEIMKRARQKFKNYPILAKINGYEASKDGIKLEEAIKISKALENSGINAIEVSCGIAEEGFVTIRGKVPFDMILKCDPTMKRIPEFLKPIVKHVGKLIVKSPEPHFLYNLNNAREIKNKVTIPVIVVGGIRKFSDIEDIIAKDCDFVSMSRPFIIQPSIVKTFKEGKEKESRCINCNYCLIGVETNELKCYYGKEGHHHHHH”: “soluble”.
“MFVAREHELQVLEKLFTSDSFEMVVLYGRRRVGKTALIDEFVKDKRVLYFTAIQQSAKMNLEDFSRAALSFFGMPDSTPSFGGWSDALSFVAERAAQTDERMVFVFDEFPYAAAAEPALPSMLQIAIDHGFLATKVTMILSGSNEGFMENDVLGRKSPLYGRRTAQIRLLPFDYADAAKFLTNTSPQELVQYYATFGGTPYYLARIQEADGFESNVLRLMFDNLGVLREEPMMLLRQELREPASYYSILQSIAGGNSSPKLIAEHAGVGSDSIGAYLKTLVDLRLIERKVPFGEDPSKSRKGMYVVSDPFFAYWFRFVGRNMSILDGNISEEVTSRLAFGPAFDTYVGQQFETICLQWLIRNNAMGNLPFVATQFGKWWGNDPIAHEQTDIDVIAADSLDKTILFGECKWRNSFNETEAIEKLHQRAGLVRGYQAGNAWLMLFTKNPVSESTRTRYMDDERMVFVSAEELYTALEHHHHHH”: the “soluble on expression in E. coli” value was “not soluble”.
The same measure for “GPGSMGIPLPKPVMTQLQERYGNTIFRCGSNCVNGYRETMEDAHLTYLTDSWGFFGVFDGHVNDQCSQYLERAWRSAIEKESIPMTDERMKELALQIDQEWMDSGREGGSTGTFFVALKEGNKVHLQVGNVGDSRVVACIDGVCVPLTEDHKPNNEGERQRIENCAGRVENNRVDGSLAVSRAFGDREYKLGSGSQLEQKVIALADVQHKDLTFNSNDFVLLCCDGVFEGNFPNEEVVAYVKQQLETCNDLAEVAGSVCEEAIERGSRDNISCMIVQFKDGSDYAAAPHTTVVPGPFSAPRNSGFRKAYESMADKGNTTVGALLEKRYDTLKAAEALTPEETEELSQFENGPEAKLTGAERQKWFSNYFQKLCEAASNGPSDQMERLQSLQQQAGIPLSILLSLMGEQTQ”: “soluble”; for “MIRQSVFLLAAIGATVFAQNDSFDLVDANNDGKLSEKELITFMRKRGRPDGQEYFQRFDLDRNGHLDISEFVPLVYEMSRRPVDMDYEFFKKMDLNDDGIVDKAEVEKIRKDNNDRIIDGILSIADTNRDGQLTYAEFKNHLSSGAKSLSPAEEQRNQALQLLSFIDANGDNKLDQLELYTFSQKTSTNKVTKSDVQQIFAMLDKNQDGYLTENELLQLAQQFSTIGNVRSTIPKV”: “not soluble”; for “MSLKNLHPIMLAGTGSDVGKSVIAAALCRIFKQDGYRPAPFKAQNMALNSYATPEGLEIGRAQAVQAEAAGVPCHTDMNPLLLKPSSDHTSQVVLNGRPIGNRNAFEYFRKEGREELRQEVNAAFDRLAARYNPIVMEGAGSISEINLRDTDLVNMPMACYADADVILVADIDRGGVFASVYGSVMLQTPEDKKRIKGVIINKFRGDIRLFESGVKMMEDLCGIPVLGIIPYYRNIHIEEEDSVGLDYKRMQAVEGKINIAVVLLRHLSNFTDFNRLERDERVHLYYTNNTEDLAKADIILLPGSKSTLDDLYELRRNGVAQAVLRAHREGVTVMGICGGYQLMGLEIHDPEGVEGEIRQLPGLGLLPVITTMQGEKVTRQVNFHFLENAETCQGYEIHMGETRPVPGEAVVPLNKLEDGGEDGCFVNQKCMGSYIHGILDNQAFIDYLLEPYAEKLECHTVLDYRTYKEEQYDKLAEHVRSHLNLPLLYQIMSGNEGHHHHHH”: “soluble”.
As for “MGSDKIHHHHHHMAATSNQIKSKVWDNKQEYHLTIESLRMLLENRIPLIRLKEFATPQECEILVAQAELFNFDCYQNVNPKIERIGITVFEYNRISKAAYFQAVERTTKLRDCIMAASFNPLERLMVKIQECTGATVRIASEPLYGSYYAGLIRKIEQGTQLHIDYAPLEQSKWEIGTVIYQLSWNLYLKFSPNNHGQTRIYDRQWQPGDEQYKLDSYGYGDTVIADADTIAFQPYVGDVFIFNTRNYHTVEPMDGQRVTFTSAIGLLPNGEIILWS”, the “soluble on expression in E. coli” value is recorded as “not soluble”.
Then “PLAIVTSPEIKSPGDLKGKRLMLSEVNIDSANFTHMLQGFGLSMKDIQILSTSFNIHDFIDGKVDAYSIFLTNELFDLQRLGVRYNILDPSNYGVELYDENLFGAKEFVLKNPTLVKRFIDASNRGWQYALDHPEEIVDLILERYNTQ”, with “not soluble”.
Then “MSLSVTDVAGRTVSFDAQPKRILLAEGRALMATSVLNKENPAKDVVAIGADLHKAAPSFESALRQARPQVSKLPMIGSIAKGDVTVENMLSFKPDAVVMTLDQKEAAEKAGFLQKMDQAKLPYVFIDFRRKPLENTTKSMATLGKIFGGKAISRAKEFNKFYQSKVDDVSRRVSRESDKPRTFLWRAAGLKDCCSTYANLNLGDVITAAGGHNLGADLLRTSAGDVTPEKIVATQPEHIIATGGSWAKDPKKPESVPHVELGYNVTDDDAQRTLAGLLKTPGFSLLKAPKDGKLHAVYHQFYDSPFNVFALEQFAAWQHPKQFKGVDLTKDFAKFHEDYLPFGYRGVFFVTLKEGHHHHHH”, with “soluble”; and “MDLNFDLYMNDVVEQARNEIEHAGYQQLTSAEDVDQVLQQKGTSLVMVNSVCGCAGGIARPAAAHALHYDKLPQRLVTVFAGQDKEATQQAREYFEGYAPSSPSFALIKDGKITEMIERHQIEGHDVMDVINQLQALFDKYCEER”, with “not soluble”.
As for “MNYGFVKVAAAVPRVKVADCKFNSERLEGLITIAEGKGVQILTFPEMCITGYTCGDLFAQQLLLEQAEMALIQILNSTRQLDIISILGMPVVVNSTVINAAVVIQKGKILGVVPKTYLPNYKEFYEQRWFTSALQVSENSVRLCGQIVPMGNNLLFETAETTFGIEICEDLWATVPPSSSLALQGAEIIFNLSADDEGIGKHNYLCSLISQQSARCISGYVFSSSGFGESTTDVVFAGNGLIYENGYLLARSERFCMEEQLIINEIDVECIRAERRVNTTFAANKANCPGKEAVRISTEFVNSKDLNLTRTFNPHPFVPQGNELNSRCEEIFSIQIAGLAQRLLHTGAKTAVIGISGGLDSTLALLVCVKTFDKLGLSRKDILGITMPGFGTTDRTYHNAIDLMNSLGVSIREISIREACIQHFKDIGHDLNIHDVTYENSQARERTQILMDIANQTWGMVIGTGDLSELALGWATYNGDHMSMYGVNAGIPKTLVKHLVQWVAENGMDETSKATLLDIVDTPISPELIPADELEHHHHHH”, the “soluble on expression in E. coli” value is “soluble”.
